Reference: patent US20240425593A1 (SICHUAN KELUN BIOTECH BIOPHARMACEUTICAL, published 2024)
Read-outs that look alike come from different tables or passages of the source.

T1: monkey PD-1-hFc (monkey)
T1 construct: Extracellular domain of monkey PD-1 fused to an hFc tag, made in house; not shown: The hFc tag and any linker
T1 chain: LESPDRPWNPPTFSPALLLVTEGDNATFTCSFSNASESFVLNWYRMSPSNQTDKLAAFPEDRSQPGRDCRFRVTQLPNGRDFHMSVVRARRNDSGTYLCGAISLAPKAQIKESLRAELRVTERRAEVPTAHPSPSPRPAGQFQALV

T2: human ICOS (human, UniProt Q9Y6W8 21-140, limits assumed)
T2 construct: Bought
T2 sequence (looked up): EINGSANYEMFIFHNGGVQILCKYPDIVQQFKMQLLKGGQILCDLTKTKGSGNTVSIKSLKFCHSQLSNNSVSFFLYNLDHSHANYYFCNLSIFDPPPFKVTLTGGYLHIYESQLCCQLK


Tests used:
monkey PD-1-hFc [1] = biological target: T1, monkey PD-1-hFc; experiment: ELISA, coated monkey PD-1-hFc
Description: (§1) In order to verify the binding affinity of murine anti-PD-1 antibody to human PD-1-hFc and monkey PD-1-hFc, ELISA was used. The specific experimental steps are as follows: human PD-1-hFc and monkey PD-1-hFc were diluted to 1 μg/mL with CBS solution, and then coated on a 96-well ELISA plate (purchased from Guangzhou Jiete Bio) at 4° C. overnight. […] After washing, a goat anti-mouse secondary antibody (FC) labeled with horseradish peroxidase diluted in phosphate buffer (PBS) containing 2% BSA in a ratio of 1:15000 was added, followed by incubating at 37° C. for 1 hour. After washing, the TMB chromogen solution was used for developing, and the absorbance value was read using a microplate reader at 450 nm. The data were imported into Graphprism to calculate the EC₅₀ value.

human PD-1-hFc [2] = biological target: T3, human PD-1-hFc (human, UniProt Q15116 25-170); experiment: competitive ELISA, coated human PD-1-hFc, competitor biotinylated PD-L1-mFc
T3 construct: extracellular domain; Extracellular domain of human PD-1 fused to an hFc tag, made in house; not shown: hFc tag
Description: (§2) The specific experimental steps were as follows: human PD-1-hFc antigens were diluted to 1 μg/mL with CBS solution, then coated on a 96-well ELISA plate (purchased from Guangzhou Jiete Bio) at 4° C. overnight. […] After washing, streptavidin labeled with horseradish peroxidase diluted in phosphate buffer (PBS) containing 2% BSA in a ratio of 1:15000 was added, followed by incubating at room temperature for 1 hour. After washing, the TMB chromogen solution was used for developing, and the absorbance value was read using a microplate reader at 450 nm, and the data were imported into Graphprism to calculate the IC₅₀ value.

[3] = biological target: T4, full-length human PD-1 on CHO-hPD-1 cells (human, UniProt Q15116 25-288); experiment: flow cytometry on CHO-hPD-1 cells, FITC anti-mouse IgG secondary antibody
T4 construct: whole, on cells; also called PD-1 on the cell membrane surface of CHO-hPD-1
Source text: (§3) In order to verify the binding of anti-human PD-1 murine antibody to PD-1 on the cell membrane surface, FACS technology was used to detect the affinity between murine antibodies and CHO-hPD-1 cells.

[4] = biological target: T4, full-length human PD-1 on CHO-hPD-1 …; experiment: flow cytometry on CHO-hPD-1 cells
Source text: as §3

human PD-1-hFc [5] = biological target: T3, human PD-1-hFc; experiment: ELISA, coated human PD-1-hFc
Description: as §1

human PD-1-His = biological target: T5, human PD-1-His (human, UniProt Q15116 25-170); experiment: BLI (Octet ForteBio), antibody on ProA biosensor, PD-1-His in solution
T5 construct: extracellular domain; not shown: His tag

[6] = biological target: T4, full-length human PD-1 on CHO-hPD-1 …; experiment: flow cytometry, FITC-labelled antibody on CHO-hPD-1 cells
[7] = biological target: T4, full-length human PD-1 on CHO-hPD-1 …; experiment: flow cytometry on CHO-hPD-1 cells with FITC-labeled antibody
human ICOS = biological target: T2, human ICOS; experiment: ELISA, coated antigen 1 µg/mL
Description: (§4) After washing, a goat anti-human IgG secondary antibody labeled with horseradish peroxidase diluted in phosphate buffer (PBS) containing 2% BSA in a ratio of 1:15000 was added, followed by incubating at 37° C. for 1 hour. After washing, the TMB chromogen solution was used for developing, and the absorbance value was read using a microplate reader at 450 nm. The data were imported into Graphprism to calculate EC₅₀ values.

CD64 protein [8] = biological target: T6, CD64 protein (UniProt P12314 16-288, limits assumed); experiment: BLI (Octet ForteBio), CD64 immobilised on an SA biosensor, antibody in solution
T6 construct: also called FcγRI

human BTLA-his = biological target: T7, human BTLA-his (human, UniProt Q7Z6A9 31-157, limits assumed); experiment: ELISA on coated human BTLA-his, HRP goat anti-human IgG detection
T7 construct: Bought; not shown: His tag
Description: as §4

human PD-1-ECD-mFc = biological target: T8, human PD-1-ECD-mFc (human; mouse, UniProt Q15116 25-170); experiment: ELISA, coated human PD-1-mFc
T8 construct: extracellular domain; Made in HEK293F cells; also called human PD-1-mFc; PD-1-mFc; not shown: mouse Fc (mFc) amino acids, AB097847.1

FcRn protein = biological target: T9, FcRn protein (UniProt P55899 24-297; P61769 21-119); experiment: BLI (Octet ForteBio), FcRn on SA biosensor, antibody in PBST pH6.0
T9 construct: Immobilised on an SA biosensor
Source text: The antibody Fc can bind to FcRn so that it cannot be easily cleared in vivo, thus prolonging the half-life in vivo.

human PD-L1-his = biological target: T10, human PD-L1-his (human, UniProt Q9NZQ7 19-239, limits assumed); experiment: ELISA on coated human PD-L1-his, HRP goat anti-human IgG detection
T10 construct: Bought; not shown: His tag
Description: as §4

monkey PD-1-hFc [9] = biological target: T1, monkey PD-1-hFc; experiment: ELISA, coated monkey PD-1-hFc
Description: as §2, with “human PD-1-hFc and monkey” for “human”, “a goat anti-human secondary antibody (FC)” for “streptavidin”, “37° C.” for “room temperature”, “EC₅₀ values.” for “the IC₅₀ value.”

[10] = biological target: PD-1 on Jurkat-PD-1-NFAT cells (UniProt Q15116 25-288, limits assumed); experiment: cell-based or functional assay
[11] = biological target: T4, full-length human PD-1 on CHO-hPD-1 …; experiment: competitive FACS on CHO-hPD-1 cells, competitor PD-L1-mFc-Bio
Source text: (§5) The data were imported into Graphprism to calculate IC₅₀ values.

[12] = biological target: T4, full-length human PD-1 on CHO-hPD-1 …; experiment: competitive flow cytometry on CHO-hPD-1 cells; blocked ligand PD-L1 (PD-L1-mFc-Bio)
Source text: as §5

CD64 protein [13] = biological target: T6, CD64 protein; experiment: BLI (Octet ForteBio), CD64 immobilised on an SA biosensor, antibody in solution; remark: listed apart in the source

Row | Binder | EC50 (monkey PD-1-hFc [1]) [nM] | IC50 (human PD-1-hFc [2]) [nM] | EC50 (read off the curve) [3] [nM] | EC50 [4] [nM] | EC50 (human PD-1-hFc [5]) [nM] | Kd (human PD-1-His) [nM] | koff (human PD-1-His) [s⁻¹] | kon (human PD-1-His) [M⁻¹ s⁻¹] | EC50 [6] [nM] | EC50 (read off the curve) [7] [ng/mL] | binding result (human ICOS) | binding result (human BTLA-his) | EC50 (human PD-1-ECD-mFc) [nM] | Kd (FcRn protein) [nM] | koff (FcRn protein) [s⁻¹] | kon (FcRn protein) [M⁻¹ s⁻¹] | binding result (human PD-L1-his) | EC50 (monkey PD-1-hFc [9]) [nM] | EC50 by the PD-1/PD-L1 luciferase reporter system [10] [nM] | IC50 [11] [ng/mL] | other results
1 | murine antibody 42G1 (antibody, V domains shown, Murine antibody from a hybridoma; also called murine PD-1 antibody 42G1) VH: QVQLKESGAELAKPGASVKMSCEASGYALTSYWMHWVKQGPGQGLEWIGYIHPSTGYTEYNQIFEDKATLSADKSSNTAYMQLTSLTSDDSAVYYCARGAGPYYFDYWGQGTTLTVSS VL: DIQLTQSPSSLAVSAGEKVIMSCKSSQSLLNSGTRKNYLAWYQQKPGQSPKLLIFWASTRESGVPDRFTGSGSGTDFTLTISSFQAEDLAVYYCKQSYDLITFGPGTKLEIK | 0.0595 | 4.5 | ~7 | 6.62 | 0.0513 |  |  |  |  |  |  |  |  |  |  |  |  |  |  |  | 
2 | murine antibody 29C6 (antibody, V domains shown, Murine antibody from a hybridoma; also called murine PD-1 antibody 29C6) VH: QVQLEESGPELVKPGASVKISCKTSGYTFTEYTIYWVKQSHGKSLEWIGGINPKNGATLYNQKFKVKATLTVDKSSSTAYMELRSLTSEDSAVYYCVRDYHGNSHDSMDYWGQGTSVTVSS VL: QIVLTQSPAIMSASPGEKVTITCSASSSVSYMHWFRQKPGTSPKLWIYYTSNLASGVPAHFSGSGSGTSYSLTISRMEAEDAATYYCQQRSDYPPTFGGGTKLEIK | 0.0344 | 2.93 | ~3 | 3.12 | 0.0355 |  |  |  |  |  |  |  |  |  |  |  |  |  |  |  | 
3 | 35E6-HZ1-IgG1-1D (antibody, also called IgG1-1D mutant anti-PD-1 humanized antibody) heavy: QVQLQESGPGLVKPSETLSLTCTVSGYSITSDYWSWIRQPPGKGLEWIGYINYDGDNNYNPSLKSRVTISRDTSKNQFSLKLSSVTAADTAVYYCARGGFDYWGQGTLVTVSSASTKGPSVFPLAPSSKSTSGGTAALGCLVKDYFPEPVTVSWNSGALTSGVHTFPAVLQSSGLYSLSSVVTVPSSSLGTQTYICNVNHKPSNTKVDKRVEPKSCDKTHTCPPCPAPEAAGGPSVFLFPPKPKDTLMISRTPEVTCVVVAVSHEDPEVKFNWYVDGVEVHNAKTKPREEQYNSTYRVVSVLTVLHQDWLNGKEYKCKVSNKALPAPIEKTISKAKGQPREPQVYTLPPSREEMTKNQVSLTCLVKGFYPSDIAVEWESNGQPENNYKTTPPVLDSDGSFFLYSKLTVDKSRWQQGNVFSCSVMHEALHAHYTQKSLSLSPGK light: EIVLTQSPATLSLSPGERATLSCRASESVEYYGTNLMQWYQQKPGQPPRLLIYFASNVASGIPARFSGSGSGTDFTLTISSLEPEDFAVYFCQQSKKVPSTFGQGTKVEIKRTVAAPSVFIFPPSDEQLKSGTASVVCLLNNFYPREAKVQWKVDNALQSGNSQESVTEQDSKDSTYSLSSTLTLSKADYEKHKVYACEVTHQGLSSPVTKSFNRGEC |  |  |  |  |  | 1.32 | 0.000306 | 333000 | 0.078 | ~10 | no binding (tested: 10 µg/mL and 1 µg/mL) | no binding (tested: 10 ug/mL) | 0.121 | 7.89 | 0.00746 | 946000 | no binding (tested: 10 ug/mL) | 0.309 | 2.81 | 0.818 | binding result (CD64 protein [8]): no binding; IC50 (read off the curve) [12]: ~100 ng/mL
4 | murine antibody 91D5 (antibody, V domains shown, Murine antibody from a hybridoma) VH: EVQLQQSGPELVKPGASVKISCRASGYTFTDYYMNWVKESHGKSLEWIGEINPKYGDTTYNQKFKDKATLTVDKSSSTASVELRSLTSEDSAVYYCAKGIRLFDSWGQGTTVTVSS VL: DIQLTQSPASLSASVGETVTITCRPSGNVHNYFAWYQQKQGKSPQLLVYNAKTLAEGVPSRFSGSGSGTQYSLKINSLQPEDFGTYYCHHYYTAPFTFGSGTKLEIK | 0.0685 | 4.25 |  |  | 0.044 |  |  |  |  |  |  |  |  |  |  |  |  |  |  |  | 
5 | 91D5-HZ2-IgG1-1D (antibody, also called IgG1-1D mutant anti-PD-1 humanized antibody) heavy: EVQLVQSGAEVKKPGASVKVSCKASGYTFTDYYMNWVREAPGQGLEWMGEINPKYGDTTYNQKFKDRATLTVDKSTSTAYMELSSLRSDDTAVYYCAKGIRLFDSWGQGTLVTVSSASTKGPSVFPLAPSSKSTSGGTAALGCLVKDYFPEPVTVSWNSGALTSGVHTFPAVLQSSGLYSLSSVVTVPSSSLGTQTYICNVNHKPSNTKVDKRVEPKSCDKTHTCPPCPAPEAAGGPSVFLFPPKPKDTLMISRTPEVTCVVVAVSHEDPEVKFNWYVDGVEVHNAKTKPREEQYNSTYRVVSVLTVLHQDWLNGKEYKCKVSNKALPAPIEKTISKAKGQPREPQVYTLPPSREEMTKNQVSLTCLVKGFYPSDIAVEWESNGQPENNYKTTPPVLDSDGSFFLYSKLTVDKSRWQQGNVFSCSVMHEALHAHYTQKSLSLSPGK light: DIQLTQSPSSLSASVGDRVTITCRPSGNVHNYFAWYQQKPGKSPKLLVYNAKTLAEGVPSRFSGSGSGTDYTLTISSLQPEDFATYYCHHYYTAPFTFGGGTKVEIKRTVAAPSVFIFPPSDEQLKSGTASVVCLLNNFYPREAKVQWKVDNALQSGNSQESVTEQDSKDSTYSLSSTLTLSKADYEKHKVYACEVTHQGLSSPVTKSFNRGEC |  |  |  |  |  | 1.17 | 0.00023 | 384000 | 0.093 | ~10 | no binding (tested: 10 µg/mL and 1 µg/mL) | no binding (tested: 10 ug/mL) | 0.104 | 5.33 | 0.00725 | 1.36e+06 | no binding (tested: 10 ug/mL) | 0.25 | 3.48 | 1.32 | binding result (CD64 protein [13]): no binding; IC50 (read off the curve) [12]: ~200 ng/mL
